This is an account of results in patent US20040091992A1.

The target of this assay is Myc tagged Cdc42HsV12 (constitutively active, expressed in microinjected cells) (UniProt P60953). In words: cell-based or functional assay.
Chain of Myc tagged Cdc42HsV12 (constitutively active, expressed in microinjected cells) (P60953 other isoform, or with tags, fused parts or gaps): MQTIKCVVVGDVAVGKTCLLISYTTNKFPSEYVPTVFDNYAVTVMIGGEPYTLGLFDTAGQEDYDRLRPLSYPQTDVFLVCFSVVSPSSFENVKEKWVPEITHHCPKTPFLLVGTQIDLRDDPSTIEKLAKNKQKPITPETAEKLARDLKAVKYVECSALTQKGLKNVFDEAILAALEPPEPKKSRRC

“HA tagged PAK4 (wild type, expressed in cells from the SRalpha vector) (from UniProt O96013 1-591)” returned a sustained formation of actin enriched filopodia protrusions in co-injected PAE cells (% of the injected cells) above 70.
